Test [1] deals with T1, F-actin (rabbit skeletal muscle actin filaments) (rabbit, UniProt P68135 1-377, methylated His73 (His73me)). Put plainly: other fluorescence titration.
For test [2], the target named is T1, F-actin (rabbit skeletal muscle actin …). Nature of the test: fluorescence polarisation.
Test [3] has the same target. Put plainly: cryo-EM structure.
For test [4] the target is unchanged. Put plainly: fluorescence polarisation. This is another data set of the same source.
Test [5] concerns the target Alexa-488 labeled F-actin (rabbit skeletal muscle actin) (rabbit, UniProt P68135 1-377). Put plainly: single-molecule TIRF microscopy.
In test [6] the target is T1, F-actin (rabbit skeletal muscle actin …). Nature of the test: fluorescence polarisation. The source holds these as a separate data set.

The values below come from publication PMC10793455 (bioRxiv, 2023).

B1: SipAC (SipA residues 425–685), unlabeled (domain or fragment)
chain: TGETTSFDEVDGVTSKSIIGKPVQATVHGVDDNKQQSQTAEIVNVKPLASQLAGVENVKTDTLQSDTTVITGNKAGTTDNDNSQTDKTGPFSGLKFKQNSFLSTVPSVTNMHSMHFDARETFLGVIRKALEPDTSTPFPVRRAFDGLRAEILPNDTIKSAALKAQCSDIDKHPELKAKMETLKEVITHHPQKEKLAEIALQFAREAGLTRLKGETDYVLSNVLDGLIGDGSWRAGPAYESYLNKPGVDRVITTVDGLHMQR
In the case of B1, the Kd is 0.18 nM in test [1] and 5 nM in test [2]. For the same molecule, in test [3], the “stoichiometry N” value came out at 0.5 SipAC per actin subunit.

B2: FM-SipAC (SipA residues 425–685 labeled with fluorescein maleimide) (domain or fragment)
chain: TGETTSFDEVDGVTSKSIIGKPVQATVHGVDDNKQQSQTAEIVNVKPLASQLAGVENVKTDTLQSDTTVITGNKAGTTDNDNSQTDKTGPFSGLKFKQNSFLSTVPSVTNMHSMHFDARETFLGVIRKALEPDTSTPFPVRRAFDGLRAEILPNDTIKSAALKAQCSDIDKHPELKAKMETLKEVITHHPQKEKLAEIALQFAREAGLTRLKGETDYVLSNVLDGLIGDGSWRAGPAYESYLNKPGVDRVITTVDGLHMQR
modifications: fluorescein maleimide (FM) label
In turn, B2 returned a Kd in test [4] of around 0.9 nM.

B3: Alexa-647-SipAC (SipA residues 425–685 labeled with Alexa-647) (domain or fragment)
chain: TGETTSFDEVDGVTSKSIIGKPVQATVHGVDDNKQQSQTAEIVNVKPLASQLAGVENVKTDTLQSDTTVITGNKAGTTDNDNSQTDKTGPFSGLKFKQNSFLSTVPSVTNMHSMHFDARETFLGVIRKALEPDTSTPFPVRRAFDGLRAEILPNDTIKSAALKAQCSDIDKHPELKAKMETLKEVITHHPQKEKLAEIALQFAREAGLTRLKGETDYVLSNVLDGLIGDGSWRAGPAYESYLNKPGVDRVITTVDGLHMQR
modifications: Alexa-647 label
With B3, the Kd in test [5] was 0.1 nM.

B4: FM-SipAC-ΔArm2 (SipA residues 425–658 labeled with fluorescein maleimide) (domain or fragment)
chain: TGETTSFDEVDGVTSKSIIGKPVQATVHGVDDNKQQSQTAEIVNVKPLASQLAGVENVKTDTLQSDTTVITGNKAGTTDNDNSQTDKTGPFSGLKFKQNSFLSTVPSVTNMHSMHFDARETFLGVIRKALEPDTSTPFPVRRAFDGLRAEILPNDTIKSAALKAQCSDIDKHPELKAKMETLKEVITHHPQKEKLAEIALQFAREAGLTRLKGETDYVLSNVLDGLIGDGSWRA
modifications: fluorescein maleimide (FM) label
B4 had a Kd in test [6] of 120 nM.

B5: SipAC-Core (SipA residues 512–658), unlabeled (domain or fragment)
chain: TGPFSGLKFKQNSFLSTVPSVTNMHSMHFDARETFLGVIRKALEPDTSTPFPVRRAFDGLRAEILPNDTIKSAALKAQCSDIDKHPELKAKMETLKEVITHHPQKEKLAEIALQFAREAGLTRLKGETDYVLSNVLDGLIGDGSWRA
B5 showed a Kd in test [1] of 81 nM.
